# Target: T1, c-myc-tagged wild-type human APCDD1 (human, UniProt Q8J025 27-514, limits assumed)
# T1 construct: Expressed from pCXN2.1 in HEK293T cells; also called c-myc-tagged APCDD1; not shown: C-terminal c-myc tag
# Assay: immunoprecipitation with anti-c-myc antibody from co-transfected HEK293T cells, western blot with anti-HA
# From the text: To examine the 130 KDa fragment, we overexpressed both HA-tagged and c-myc-tagged APCDD1 in HEK293T cells, and performed immunoprecipitation using an anti-c-myc antibody, which was followed by western blot with an anti-HA antibody. […] By contrast, only a faint fragment, 52 KDa in size, was detected in total cell lysate of the L9R mutant construct-transfected cells (FIG. 3C; lane 2, top panel). In addition, a 65 KDa fragment was detected in the medium of the wild-type and the control L9V mutant APCDD1 construct-transfected cells, while no fragment in the medium of the L9R mutant construct-transfected cells (FIG. 3C; lanes 1-3, bottom panel).
# Immunoprecipitation. Expression plasmids of HA-tagged APCDD1 and c-myc-tagged APCDD1 (4 μg each) were co-transfected into HEK293T cells as described above. 48 h after the transfection, the cells were harvested and homogenized in lysis buffer (50 mM Tris-HCl (pH 8.0), 150 mM NaCl, 0.5% NP40, and 1× Complete Mini Protease Inhibitor Cocktail). Total cell lysates were collected by centrifugation at 14,000 rpm for 20 min at 4° C. The samples were incubated with 0.3 μg of normal rabbit IgG (Santa Cruz Biotechnology) and 10 μl of protein A/G plus agarose (Santa Cruz) for 30 min at 4° C., and centrifuged at 10,000 rpm for 1 min at 4° C. […]
binder,measurement,value
"C-terminal HA-tagged wild-type human APCDD1 (SWAMP-HA; pCXN2.1-Wt-SWAMP-HA) (receptor, Expressed from pCXN2.1 in HEK293T cells; also called HA-tagged APCDD1; HA-tagged SWAMP; not shown: C-terminal HA (hemagglutinin) tag) not shown",binding result,binds

# Reference: patent US20120003244A1 (published 2012)
